For ten molecules, Kd results are on record in patent publication US20260308269 (published 2026).

Substitutions are numbered along the chain they refer to.

What is called Kd is a measure of binding affinity in units of concentration.

The chains are these.
B1: 6.5.11.5.42.2 (TV42.2) (protein)
chain: APELLGGPSVFLFPPKPKDTLMISRTPEVTCVVVDVSHEDPEVKFNWYVDGVEVHNAKTKPREEQYNSTYRVVSVLTVLHQDWLNGKEYKCKVSNKALPAPIEKTISKAKGQPREPQVYTLPPSRDELTKNQVSLTCLVKGFYPSDIAVEWFSDGSKETNYKTTPPVLDSDGSFFLYSKLTVDKSRWQQGNLFACEVMHEALHNHYTYKLLSLSPGK
B2: 42.8.17 (protein)
chain: B1 chain with D154G, G155A, S156Q, E158L
B3: 42.2.19 (protein)
chain: B1 chain with S153Y, G155D, E158L, Q189P, G190R, N191G, S212G, L213E
B4: 6.5.11.5.42.1 (protein)
chain: B1 chain with D154G, S156A
B5: 42.8.15 (protein)
chain: B1 chain with D154G, G155A, S156Q, T159S
B6: 42.8.143 (protein)
chain: B1 chain with S153Y, D154G, G155D, E158L
B7: CH3C.35.23.2 (protein)
chain: PCPAPELLGGPSVFLFPPKPKDTLMISRTPEVTCVVVDVSHEDPEVKFNWYVDGVEVHNAKTKPREEQYNSTYRVVSVLTVLHQDWLNGKEYKCKVSNKALPAPIEKTISKAKGQPREPQVYTLPPSRDELTKNQVSLWCLVKGFYPSDIAVEWESYGTEWANYKTTPPVLDSDGSFFLYSKLTVTKEEWQQGFVFSCSVMHEALHNHYTQKSLSLSPGK
B8: CH3C.35.23.4 (protein)
chain: B7 chain with A162S, T186S
B9: TV35.d1.9 (protein)
chain: B7 chain with L7A, L8A, P102G, A162T, E188S
B10: TV35.d1.10 (protein)
chain: B7 chain with L7A, L8A, P102G, A162V, E188S

For one assay, the target named is T1, human TfR apical domain (human).
T1 chain: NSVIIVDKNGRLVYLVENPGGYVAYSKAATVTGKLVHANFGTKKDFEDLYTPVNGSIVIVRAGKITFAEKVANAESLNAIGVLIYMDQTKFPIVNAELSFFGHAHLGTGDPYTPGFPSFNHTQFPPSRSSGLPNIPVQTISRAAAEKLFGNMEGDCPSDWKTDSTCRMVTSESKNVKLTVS
Put plainly: SPR. (In general: SPR reads the build-up and loss of mass on a sensor chip optically.)
On to B1, for which binding was characterised by a dissociation constant (Kd) of 650 nM.

In the case of B2, the dissociation constant (Kd) is 10400 nM. The same measure, in the same setting: under B3 stands 80 nM; under B4, 840 nM; under B5, 5960 nM.

In another assay the target is T1, human TfR apical domain. Put plainly: SPR. The source holds these as a separate data set.
B1: binding was put at a Kd of 650 nM. On the same count and under the same terms, then B6, with 450 nM. Same read-out and setting: then B7, with 100 nM; and B8, with 620 nM.

The molecule B9 came in with a Kd of 8000 nM. This Kd is about 13-fold higher than that of the molecule before. On the same count and under the same terms, under B10 stands 2500 nM.

The next assay addresses T1, human TfR apical domain. Nature of the assay: SPR. This is another data set of the same source.
As to B9, binding was put at a Kd of 8400 nM. This counts as single-digit micromolar. B10 came in with a dissociation constant (Kd) of 2500 nM. Against the preceding molecule, the Kd is about 3.4-fold lower.
